Laboratory results: publication PMC13696528 (2026)
No end group written: not given here.

Biological target: PD-L1 (UniProt Q9NZQ7)
Assay: SPR

PD-L1, sequence (Q9NZQ7 19-238): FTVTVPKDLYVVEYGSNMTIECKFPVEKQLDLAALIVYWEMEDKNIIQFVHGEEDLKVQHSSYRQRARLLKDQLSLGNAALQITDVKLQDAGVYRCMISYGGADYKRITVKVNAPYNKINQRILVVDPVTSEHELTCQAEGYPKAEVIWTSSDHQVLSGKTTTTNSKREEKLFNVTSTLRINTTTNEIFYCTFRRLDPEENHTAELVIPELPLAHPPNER

Question: Which Kd does the source give for NTGYFYGDQ (also: co-assembled nanofiber with IR-CF3) [PSP (PSP@IR-CF3 nanofiber)] here?
Answer: The Kd was 27.8 nM.
